Laboratory results published in US20220073608A1 (JIANGSU HUAIYU PHARMACEUTICAL, published 2022).
Substitutions are numbered along the chain they refer to.

T1: hSEMA4D ECD-His (His-tagged human SEMA4D protein extracellular domain, Met22-Arg734) (human, UniProt Q92854 22-734)
T1 construct: Expressed in CHO-S cells, purified on Ni column; also called protein immunogen; immunogen A; not shown: His tag of the pCP vector
T1 sequence: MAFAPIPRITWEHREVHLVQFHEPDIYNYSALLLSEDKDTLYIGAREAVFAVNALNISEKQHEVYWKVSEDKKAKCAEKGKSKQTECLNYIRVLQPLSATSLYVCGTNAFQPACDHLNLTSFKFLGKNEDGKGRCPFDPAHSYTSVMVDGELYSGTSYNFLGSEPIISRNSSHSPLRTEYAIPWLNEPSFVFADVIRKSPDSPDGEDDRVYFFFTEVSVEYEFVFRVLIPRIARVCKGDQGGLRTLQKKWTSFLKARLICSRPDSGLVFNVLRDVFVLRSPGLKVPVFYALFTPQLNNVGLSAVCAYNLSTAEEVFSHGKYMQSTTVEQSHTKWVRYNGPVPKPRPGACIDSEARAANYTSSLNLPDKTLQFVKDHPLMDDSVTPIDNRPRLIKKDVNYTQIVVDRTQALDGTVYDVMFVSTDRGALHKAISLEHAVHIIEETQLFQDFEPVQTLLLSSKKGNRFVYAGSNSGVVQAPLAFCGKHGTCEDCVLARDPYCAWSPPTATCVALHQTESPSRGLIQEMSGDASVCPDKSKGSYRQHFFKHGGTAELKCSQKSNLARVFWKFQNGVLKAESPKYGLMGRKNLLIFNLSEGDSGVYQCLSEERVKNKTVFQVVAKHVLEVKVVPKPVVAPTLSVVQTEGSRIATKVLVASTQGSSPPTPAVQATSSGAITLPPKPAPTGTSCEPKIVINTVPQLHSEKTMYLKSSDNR

T2: human SEMA4D, full length, on CHO-K1 cells (CHO-K1 hSEMA4D) (human, UniProt Q92854 22-862)
T2 construct: whole, on cells; also called human SEMA4D recombinant cells
T2 sequence (looked up): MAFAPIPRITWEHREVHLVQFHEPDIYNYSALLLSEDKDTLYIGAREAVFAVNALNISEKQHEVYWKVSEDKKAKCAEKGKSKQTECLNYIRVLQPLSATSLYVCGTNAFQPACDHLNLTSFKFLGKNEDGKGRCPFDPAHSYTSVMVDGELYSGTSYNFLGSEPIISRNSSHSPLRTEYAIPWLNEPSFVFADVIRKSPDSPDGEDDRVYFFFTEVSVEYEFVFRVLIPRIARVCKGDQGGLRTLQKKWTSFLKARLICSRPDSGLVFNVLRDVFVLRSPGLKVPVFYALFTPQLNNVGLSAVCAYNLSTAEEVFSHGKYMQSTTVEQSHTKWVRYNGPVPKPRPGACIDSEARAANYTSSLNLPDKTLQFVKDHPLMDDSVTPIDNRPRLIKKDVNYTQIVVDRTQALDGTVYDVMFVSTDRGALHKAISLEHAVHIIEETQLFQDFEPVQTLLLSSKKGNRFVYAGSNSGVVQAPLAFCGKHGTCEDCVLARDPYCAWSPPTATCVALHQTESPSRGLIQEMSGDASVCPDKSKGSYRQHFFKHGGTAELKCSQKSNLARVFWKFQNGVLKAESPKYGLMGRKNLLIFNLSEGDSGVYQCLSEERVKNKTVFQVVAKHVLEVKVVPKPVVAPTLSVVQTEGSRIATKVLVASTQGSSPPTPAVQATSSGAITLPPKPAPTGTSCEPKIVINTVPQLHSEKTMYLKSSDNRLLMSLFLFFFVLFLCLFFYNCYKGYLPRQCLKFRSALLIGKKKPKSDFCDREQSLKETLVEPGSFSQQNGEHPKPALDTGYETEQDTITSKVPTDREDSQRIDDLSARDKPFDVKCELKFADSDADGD

B1: 42B7G2 (antibody, V domains shown)
VH: QVQLQQSGAELARPGASVKLSCKASGYTFTDYGISWVKQRTGQGLEWIGEIYLRNDNSYYNEKFKGKATLTADKSSNTAYMELRSLTSEDSAVYFCARWGDHGNNYEDAMDYWGQGTSVTVSS
VL: DIVLTQSPASLAMSLGKRATISCRASESVSIIGSNLIHWYQQKPGQPPKLLIYHASNLETGVPARFSGSGSRTDFTLTIDPVEEDDVAIYYCLQSRKVPYTFGGGTKLEIK
notes: Mouse monoclonal antibody purified from hybridoma supernatant on protein A
B2: 37C4F7 (antibody, V domains shown)
VH: EFQLQQSGPEVVKPGASVKISCKASGYSFTDYNMNWMKQSKGKSLEWIGVINPNYGTTTYNQNFKGKATLTVDQSSSTAYMQLNSLTSEDSAVYYCARDMYYVYAYYTMDYWGQGTSVTVSS
VL: DVVMTQTPLSLPVSLGDQASISCRSSQSLVHSNGHTYLHWYLQRPGQSPTLLIYKVSNRFSGVPDRFSGSGSGTDFTLKISRVEAEDLGVYFCSQGTHVPWTFGGGTKLEIK
notes: as for B1
B3: 38H2E3 (antibody, V domains shown)
VH: B2 VH with N52S, N54D, G66D, R98K, Q114H
VL: B2 VL with F67V, W101R
notes: as for B1
B4: 37F11F9 (antibody, V domains shown)
VH: EVQLQQSGPVLVKPGASVKMSCKASGYTFTDYYMNWVKQSHGKSLEWIGLINPYSGGSTFNQKFKAKATLTVDKSSSSAYMDLNSLTSEDSAVYYCARVGDGYYGVTHGMDYWGQGTSVTVSS
VL: DIVMTPSQKFMSTTVGDRVSITCKASQNVGTAVAWYQQKPGQSPTILIYSASNRYTGVPDRFTGSGSGTDFTLTISNMKSEDLADYFCQQYYIYPFTFAAGTKLELK
notes: as for B1
B5: 32C8F10 (antibody, V domains shown)
VH: EVQLQQSGAELVRPGASVKLSCTASGFNIKDEYIHWVKQRPEQGLEWIGWIDPANGHTEYASRFQAKATITADTSSNTAYLQLSSLTSEDTAVYYCTTGDYDGFAYWGQGTLVTVST
VL: QIVLTQSPAIMSASPGEKVTISCSARSSVSYMYWYQQKPGSSPKPWIYRTSNLASGVPARFSGSGSGTSYSLTISSMEAEDAATYYCQHYHTYPYTFGGGTKLEIK
notes: as for B1
B6: 31C11G2 (antibody, V domains shown)
VH: B5 VH with A105V
VL: B5 VL with S22F
notes: as for B1
B7: 31G10C5 (antibody, V domains shown)
VH: B5 VH with E32D, T58I, R63N, A105T
VL: B5 VL
notes: as for B1

The binders below were run against T1, hSEMA4D ECD-His (His-tagged human …) (assay: ELISA, coated hSEMA4D ECD-His; Ab 0.267 nM).
Procedure: First, hSEMA4D ECD-His was diluted with PBS to a final concentration of 1.0 μg/mL, and then was added to a 96-well ELISA plate, 100 μL per well, sealed with plastic film and incubated overnight at 4° C. On the next day, the plate was washed with a plate washing solution, that is, PBS buffer containing 0.05% (v/v) Tween20, for 4 times, and added with blocking solution, that is, PBS buffer containing 0.05% (v/v) Tween20 and 2% (w/w) BSA, blocked at 37° C. for 1 hour. The blocking solution was poured out and the plate was washed 4 times with the plate washing solution. 100 μL of the purified leading antibodies obtained in Examples 1 and 2 was added to each well. After incubation at 37° C. for 1 hour, the plate was washed 4 times with a plate washing solution. 100 μL of horseradish peroxidase (HRP) labeled secondary antibody (purchased from Sigma) was added at a dilution of 1:10000 to each well, and the plate was incubated at 37° C. for 1 hour, and washed 4 times with a plate washing solution. 100 μL TMB substrate was added to each well, and the plate was incubated at room temperature for 5 minutes, and added with 100 μL stop solution (1.0N HCl) to each well. A microplate reader (SpectraMax M5e, purchased from Molecular Device) was used to read the A450 nm value. […] Wherein, the data in the table was the OD450 nm value.

Row | OD450 nm | Binder
1 | 1.4 | B1
2 | 0.41 | B2
3 | 0.531 | B3
4 | 0.89 | B4
5 | 1.28 | B5
6 | 1.47 | B6
7 | 1.15 | B7

The binders below were run against T3, monkey SEMA4D, full length, on CHO-K1 cells (CHO-K1 cSEMA4D) (monkey) (assay: FACS, CHO-K1 cSEMA4D cells; Ab 0.534 nM).
T3 construct: whole, on cells; also called monkey SEMA4D recombinant cells
Procedure: After the cells were counted, they were diluted with PBS to 2×10⁶ cells per milliliter. After washing, 100 μL of diluted and purified leading antibodies was added to each well and the plate was incubated for 1 hour on ice. […] Cells were washed 2 times by centrifugation with FACS buffer. The cells were suspended with 200 μL of FACS buffer, FACS (FACS Verse, purchased from BD) was used to detect and analyze the results.

Row | MFI | Binder
8 | 1690 | B1
9 | 760 | B2
10 | 601 | B3
11 | 925 | B4
12 | 2930 | B5
13 | 2980 | B6
14 | 3490 | B7

Each binder was assayed against T2, human SEMA4D, full length, on CHO-K1 … (assay: FACS, CHO-K1 hSEMA4D cells; Ab 0.534 nM).
Procedure: (§1) The medium was aspirated, the cells were washed once with PBS buffer (purchased from Invitrogen), and then treated with cell dissociation fluid (TrypLE™ Express Enzyme, purchased from Life technology), and the cells were collected. After the cells counted, the cells were washed once with PBS phosphate buffer, and diluted to 3×10⁶ cells per milliliter, and added to the 96-well FACS reaction plate as 100 μL per well. 2% (w/w) fetal calf serum was added to PBS phosphate buffer as FACS buffer, with which the cells were washed once by centrifugation at 2000 rpm 4° C. 100 μL of diluted and purified leading antibodies was added to each well and the plate was incubated for 1 hour on ice. […] Cells were washed 2 times by centrifugation with FACS buffer. The cells were suspended with 200 μL of FACS buffer, and FACS (FACS Verse, purchased from BD) was used to detect and analyze the results.

Row | MFI | Binder
15 | 2000 | B1
16 | 738 | B2
17 | 763 | B3
18 | 1120 | B4
19 | 2920 | B5
20 | 3140 | B6
21 | 3070 | B7

The binders below were run against T2, human SEMA4D, full length, on CHO-K1 … (assay: FACS, CHO-K1 hSEMA4D cells; Ab 2.67 nM).
Procedure: as §1

Row | MFI | Binder
22 | 3790 | B1
23 | 2340 | B2
24 | 2370 | B3
25 | 2880 | B4
26 | 6170 | B5
27 | 5970 | B6
28 | 5860 | B7
